Measurements: paper PMC12697855, “Distinct Phage‐Encoded Enzymes for Substitution of Deoxythymidine by Deoxyuridine in Phage Genomes” (Advanced Science, 2025)

Legend:
Dtt_PhiR1‐37 = test system: T1, Dtt_PhiR1‐37; test: phosphomolybdate phosphate release, coupled inorganic pyrophosphatase IPP1; assay type: biochemical, Yersinia phage phiR1-37; conditions: 2 mM Mg2+, 50 mM Tris-HCl pH 7.5, room temperature; read-out: kinetic parameters
T1 construct: gene Dtt; recombinant from codon-optimized synthetic gene in HMT plasmid, N-terminal His6-MBP tag, amylose column, E. coli
Excerpt: phosphomolybdate phosphate release, coupled inorganic pyrophosphatase IPP1 on Dtt_PhiR1‐37

Dcd_PhiR1‐37 = test system: T2, Dcd_PhiR1‐37; test: UV absorbance at […] nm, deamination; assay type: biochemical, Yersinia phage phiR1-37; conditions: Mg2+ (table; methods text says 2 mM Mn2+), 50 mM Tris-HCl pH 7.5, room temperature; read-out: kinetic parameters
T2 construct: gene Dcd; recombinant from codon-optimized synthetic gene in HMT plasmid, N-terminal His6-MBP tag, amylose column, E. coli

Dcd_PBS1 = target: T3, Dcd_PBS1 (Bacillus phage PBS1, UniProt A0A223LD31); test: inhibition of dCTP deamination (details in supplement); assay type: biochemical; conditions: inhibitor (negative regulation); also the reaction product
T3 construct: gene 112; recombinant from codon-optimized synthetic gene in HMT plasmid, N-terminal His6-MBP tag, amylose column, E. coli
T3 sequence (A0A223LD31 1-176): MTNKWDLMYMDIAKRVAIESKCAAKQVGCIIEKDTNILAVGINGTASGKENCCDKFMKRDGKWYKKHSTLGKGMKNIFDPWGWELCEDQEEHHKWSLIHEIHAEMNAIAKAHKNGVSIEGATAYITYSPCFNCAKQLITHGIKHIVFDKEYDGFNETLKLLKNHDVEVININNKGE

[1] = substrate: Cc1cn([C@H]2C[C@H](O)[C@@H](COP(=O)(O)O)O2)c(=O)[nH]c1=O; test: phosphomolybdate phosphate release; assay type: biochemical, Bacillus phage PBS1; conditions: Mg2+ (table; methods text says 2 mM Co2+), 50 mM Tris-HCl pH 7.5, room temperature
Excerpt: phosphomolybdate phosphate release on Dtm_PBS1

purified protein [2] = substrate: Nc1ccn([C@H]2C[C@H](O)[C@@H](COP(=O)(O)OP(=O)(O)OP(=O)(O)O)O2)c(=O)n1; test: purified protein; assay type: biochemical, Bacillus phage PBS1; conditions: 2 mM Mn2+, 50 mM Tris-HCl pH 7.5, room temperature
purified protein [3] = substrate: Nc1ccn([C@H]2C[C@H](O)[C@@H](COP(=O)(O)OP(=O)(O)O)O2)c(=O)n1; test: purified protein; assay type: biochemical, Exiguobacterium artemiae; conditions: Co2+ is best metal (methods text for kinetics says 2 mM Mn2+), 50 mM Tris-HCl pH 7.5, room temperature
purified protein [4] = substrate: Nc1ccn([C@H]2C[C@H](O)[C@@H](COP(=O)(O)OP(=O)(O)OP(=O)(O)O)O2)c(=O)n1; test: purified protein; assay type: biochemical, Exiguobacterium artemiae; conditions: Co2+ is best metal (methods text for kinetics says 2 mM Mn2+), 50 mM Tris-HCl pH 7.5, room temperature
purified protein [5] = substrate: Nc1ccn([C@H]2C[C@H](O)[C@@H](COP(=O)(O)O)O2)c(=O)n1; test: purified protein; assay type: biochemical, Exiguobacterium artemiae; conditions: Co2+ is best metal (methods text for kinetics says 2 mM Mn2+), 50 mM Tris-HCl pH 7.5, room temperature
purified protein [6] = substrate: Nc1ccn([C@H]2C[C@H](O)[C@@H](COP(=O)(O)OP(=O)(O)O)O2)c(=O)n1; test: purified protein; assay type: biochemical, Bacteriophage DSS3_VP1; conditions: 2 mM Mn2+, 50 mM Tris-HCl pH 7.5, room temperature
purified protein [7] = substrate: Nc1ccn([C@H]2C[C@H](O)[C@@H](COP(=O)(O)OP(=O)(O)OP(=O)(O)O)O2)c(=O)n1; test: purified protein; assay type: biochemical, Bacteriophage DSS3_VP1; conditions: 2 mM Mn2+, 50 mM Tris-HCl pH 7.5, room temperature
purified protein [8] = substrate: Nc1ccn([C@H]2C[C@H](O)[C@@H](COP(=O)(O)O)O2)c(=O)n1; test: purified protein; assay type: biochemical, Bacteriophage DSS3_VP1; conditions: 2 mM Mn2+, 50 mM Tris-HCl pH 7.5, room temperature
purified protein [9] = substrate: Nc1ccn([C@H]2C[C@H](O)[C@@H](COP(=O)(O)OP(=O)(O)O)O2)c(=O)n1; test: purified protein; assay type: biochemical, Sulfurimonas gotlandica; conditions: 2 mM Mn2+, 50 mM Tris-HCl pH 7.5, room temperature
purified protein [10] = substrate: Nc1ccn([C@H]2C[C@H](O)[C@@H](COP(=O)(O)OP(=O)(O)OP(=O)(O)O)O2)c(=O)n1; test: purified protein; assay type: biochemical, Sulfurimonas gotlandica; conditions: 2 mM Mn2+, 50 mM Tris-HCl pH 7.5, room temperature
purified protein [11] = substrate: Nc1ccn([C@H]2C[C@H](O)[C@@H](COP(=O)(O)O)O2)c(=O)n1; test: purified protein; assay type: biochemical, Sulfurimonas gotlandica; conditions: 2 mM Mn2+, 50 mM Tris-HCl pH 7.5, room temperature
[12] = substrate: O=c1ccn([C@H]2C[C@H](O)[C@@H](COP(=O)(O)O)O2)c(=O)[nH]1; test: phosphomolybdate phosphate release; assay type: biochemical, Bacteriophage DSS3_VP1; conditions: 2 mM Co2+, 50 mM Tris-HCl pH 7.5, room temperature
Excerpt: (§1) phosphomolybdate phosphate release on Dtm_DSS3_VP1

[13] = substrate: Cc1cn([C@H]2C[C@H](O)[C@@H](COP(=O)(O)O)O2)c(=O)[nH]c1=O; test: phosphomolybdate phosphate release; assay type: biochemical, Bacteriophage DSS3_VP1; conditions: 2 mM Co2+, 50 mM Tris-HCl pH 7.5, room temperature
Excerpt: as §1

Molecule `Cc1cn([C@H]2C[C@H](O)[C@@H](COP(=O)(O)OP(=O)(O)OP(=O)(O)O)O2)c(=O)[nH]c1=O` [dTTP] has a Km (Dtt_PhiR1‐37) of 108 ± 11 µM.

For `Nc1ccn([C@H]2C[C@H](O)[C@@H](COP(=O)(O)OP(=O)(O)OP(=O)(O)O)O2)c(=O)n1` [dCTP], the Km (Dcd_PhiR1‐37) was 117 ± 31 µM.

With `Nc1nc2c(ncn2[C@H]2C[C@H](O)[C@@H](COP(=O)(O)OP(=O)(O)OP(=O)(O)O)O2)c(=O)[nH]1` [dGTP] the Km (Dtt_PhiR1‐37) was 440 ± 110 µM.

With `O=c1ccn([C@H]2C[C@H](O)[C@@H](COP(=O)(O)OP(=O)(O)OP(=O)(O)O)O2)c(=O)[nH]1` [dUTP] the Km (Dtt_PhiR1‐37) was 145 ± 16 µM and the “inhibition of dCTP deamination (details in supplement)” value (Dcd_PBS1) was “Bacillus phage PBS1 Dcd is negatively regulated by dUTP (Figure S9, Supporting Information)”.

B1: Dtm_PBS1 (Bacillus phage PBS1) (protein)
chain: MFSIKEPFSIVTDCDEVLTDISPLWVHKIQQNADYFGKYFDLSKLEGLEFGTFEHYQTVLSRPEFHLNKWLRKENLVLSDEEEKELFERFYSLYDNDEFYEDCMPTKMCEGIYKLSLQKFVDKIYVVTRTSEGTKEGKRKFIETFLNSNKVEIIFVGKNEKKSDYIKNLKNVKMIVEDELSNINDIVENCNDGFEEVDIYIPSTGYNNKDIDGFNENLMKKGFNAVPYVIIERPETEEKAV
notes: recombinant from pCold TF, E. coli BL21(DE3), N-terminal His6-Trigger factor-TEV site tag, Ni-NTA; tag kept
Molecule B1 has a Km [1] of 42 ± 8 µM and a kcat [1] of 0.0317 ± 0.0017 s⁻¹.

B2: Dcd_PBS1 (Bacillus phage PBS1) (protein)
chain: T3 sequence (A0A223LD31 1-176)
notes: recombinant from codon-optimized synthetic gene in HMT plasmid, N-terminal His6-MBP tag, amylose column, E. coli
B2 gave a Km (purified protein [2]) of 137 ± 23 µM and a kcat (purified protein [2]) of 15.4 ± 1 s⁻¹.

B3: E. sibiricum cytidine nucleotide deaminase (Exiguobacterium artemiae 255-15) (protein)
chain: MMKKQHQWDTTWLLFARMMADRHSKCASKSVACVIVKDEKPISIGINGTPSQHVNCNEIYLKQDNILYKAEAERQQEKADALSIVHNGQVFYRCDNQEEHHEWSKMNEIHAEINALGKLAADSTSARHATAYVTHSPCHACSLALIASKIDRVVYSTGYEYGDGLTLMRQSEIEVLHRPLTEEYFLERIFDKDL
notes: as for B2
B3 showed a Km (purified protein [3]) of 179 ± 31 µM, a kcat (purified protein [3]) of 21.2 ± 1.9 s⁻¹ and a Km (purified protein [4]) of 186 ± 35 µM. The kcat (purified protein [4]) was 0.9 ± 0.1 s⁻¹, the Km (purified protein [5]) was 415 ± 143 µM and the kcat (purified protein [5]) was 0.05 ± 0.01 s⁻¹.

B4: Dcd_DSS3_VP1 (Bacteriophage DSS3_VP1) (protein)
chain: MHSWDKRFMEMAELVASWSKDPRTKVGCVLADSKHRVLGVGYNGFPRGVNDRDDRYANREVKLAMVKHAEENAVFNAAKHDLSDAVAYVTLAPCSSCAGTLIQAGVRRVVFPEPDPEHMTRHYGNYELMLQMLSEARVLKSVITKEGVIK
notes: as for B2
With B4 the Km (purified protein [6]) was 144 ± 44 µM, the kcat (purified protein [6]) was 5.6 ± 0.8 s⁻¹ and the Km (purified protein [7]) was 114 ± 22 µM. For the same molecule, the kcat (purified protein [7]) was 8.9 ± 0.7 s⁻¹, the Km (purified protein [8]) was 257 ± 55 µM and the kcat (purified protein [8]) was 1 ± 0.1 s⁻¹.

B5: S. gotlandica cytidine nucleotide deaminase (Sulfurimonas gotlandica GD1) (protein)
chain: MLSDQNFINIAQELATASKCVSKQVGAVIVKDGRILSTGYNGTPAGFTNCCDHWNGEYTPDHHEWSKTYEIHAEMNAIIWAARKGISIEGASIFVTLEPCSECSKNLIASGIKRIVYAKEYEHTHSDTISKFIKDNGVSIEQLAPKV
notes: as for B2
Work on B5 yielded a Km (purified protein [9]) of 271 ± 90 µM, a kcat (purified protein [9]) of 0.5 ± 0.1 s⁻¹ and a Km (purified protein [10]) of 293 ± 88 µM. For the same molecule, the kcat (purified protein [10]) was 0.06 ± 0.01 s⁻¹, the Km (purified protein [11]) was 661 ± 178 µM and the kcat (purified protein [11]) was 0.28 ± 0.05 s⁻¹.

B6: Dtm_DSS3_VP1 (Bacteriophage DSS3_VP1) (protein)
chain: MCNEKIALGYELYTSGYVNRYHSHPHPHLRNAQDLTDAHSNRMVKLLYLFFPELAHRGTLVAYIVMHDAGESASGDSPFTAKIANPKLKEALDEVEGQRLAQFYGLFQNDLRIDLTQKEENVVKLLDLLESFLFQAIHAPGRMDEEHHLFQNIEKRARELEVYPEVRCMMMHALHRNNAATKGY
notes: as for B2
B6 gave a Km [12] of 170 ± 15 µM, a kcat [12] of 1 ± 0.1 s⁻¹ and a Km [13] of 22 ± 4 µM. The kcat [13] was 3.1 ± 0.1 s⁻¹.
